{"source": "paper PMC13227277", "about": "“Targeting CIRP and IL-6R-mediated microglial inflammation to improve outcomes in intracerebral hemorrhage” (Journal of Advanced Research, 2025)", "key": {"[1]": {"system": "IL-6Rα/STAT3 pathway in microglia", "experiment": "IL-6Rα expression and p-STAT3 in CIRP-stimulated microglia", "format": "cell-based, mouse", "details": "CIRP stimulation with or without TCC", "description": "Brain tissues were fixed in paraformaldehyde, dehydrated, and sectioned at 30 µm using a microtome (CM1900UV, Leica, Germany). Sections were floated onto glass slides and left overnight at room temperature. For cultured cells, after discarding the medium, cells were washed twice with PBS, fixed with precooled 4 % PFA at 4 °C for 10 min, and washed three times with PBS (10 min each) on a shaker. Cells were permeabilized with 0.3 % Triton X-100 in PBS for 20 min, blocked with 5 % donkey serum for 1 h, and incubated overnight at 4 °C with primary antibodies (Iba-1, Rabbit polyclonal, Wako; NeuN, Millipore; GFAP, CST; MBP, Abcam; SMI32, Millipore). The next day, sections were brought to room temperature, washed three times with PBST (PBS + Tween-20), and incubated with secondary antibodies for 1 h in the dark. After three more PBST washes, samples were mounted with DAPI-containing medium and sealed. Fluorescence was visualized using a DM4000B microscope and images were captured with a Leica TCS SP8 confocal microscope. […]\n(§1) Brain tissue adjacent to the hemorrhagic striatum was homogenized in lysis buffer with protease inhibitors. […] The supernatant was collected for protein quantification using the BCA method. […]"}, "[2]": {"system": "IL-6R-overexpressing HEK-293 T cells", "experiment": "IL-6R mRNA/protein expression in IL-6R-overexpressing HEK-293 T cells", "format": "cell-based, human", "details": "CIRP 1 μg/mL for 24 h", "description": "The overexpression plasmid for IL-6R was constructed by GenScript Biotech using a pcDNA3.1(+)-3xFLAG-P2A-EGFP vector with a broad-spectrum promoter, non-fusion EGFP fluorescence, and Neo (G418) resistance. The final construct was pcDNA3.1(+)-IL6r-3xFLAG-P2A-EGFP, and a control plasmid (pcDNA3.1(+)-3xFLAG-P2A-EGFP) was also generated.\nHEK 293 T cells were cultured in six-well plates to 70–80 % confluence. Cells were divided into control and test groups. For transfection, solution A (plasmid diluted in Opti-MEM) and solution B (Lipofectamine 2000, Life Technologies, USA, diluted in Opti-MEM) were mixed at a 1:2 plasmid-to-lipofectamine ratio. After 6 h, the medium was replaced with DMEM, and GFP fluorescence was observed 24–48 h post-transfection to assess efficiency. Cells were divided into PBS, IL-6R, and CIRP (1 μg/mL for 24 h) groups for further analysis.\nRNA was extracted using TRIzol reagent (Invitrogen, 210901). RNA was reverse transcribed into cDNA using Novagen's R323-01 100RXN. qRT-PCR was performed to determine the mRNA levels of Nos2, Tnf, Rela, Mcr1, Arg1, Cirbp, […] and Il6. […]\nas §1"}, "[3]": {"biological_target": "T1, recombinant human IL-6 receptor alpha (IL-6Rα) (human, UniProt P08887 20-365)", "T1 construct": "Interleukin-6 receptor subunit alpha, human; UniProtKB P08887 is printed for the docking; also called rhIL-6Rα; rhIL-6R; source: recombinant", "T1 sequence (looked up)": "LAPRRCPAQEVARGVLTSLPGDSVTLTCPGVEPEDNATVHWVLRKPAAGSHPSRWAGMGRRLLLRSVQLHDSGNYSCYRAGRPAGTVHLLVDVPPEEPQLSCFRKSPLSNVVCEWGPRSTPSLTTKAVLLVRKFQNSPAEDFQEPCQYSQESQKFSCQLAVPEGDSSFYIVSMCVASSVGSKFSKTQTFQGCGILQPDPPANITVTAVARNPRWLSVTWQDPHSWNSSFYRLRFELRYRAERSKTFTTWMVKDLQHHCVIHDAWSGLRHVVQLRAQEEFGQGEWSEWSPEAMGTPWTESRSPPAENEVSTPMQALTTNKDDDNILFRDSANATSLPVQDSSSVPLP", "experiment": "SPR; human IL-6Rα immobilised on a CM5 chip; human CIRBP or TCC as analyte", "details": "both partners purified"}}, "data": [{"molecule": "recombinant human CIRP (cold-inducible RNA-binding protein) (natural protein, UniProt Q14011 1-172, looked up, UniProtKB Q14011 is printed for the docking; also called rhCIRP; human CIRBP; source: recombinant) MASDEGKLFVGGLSFDTNEQSLEQVFSKYGQISEVVVVKDRETQRSRGFGFVTFENIDDAKDAMMAMNGKSVDGRQIRVDQAGKSSDNRSRGYRGGSAGGRGFFRGGRGRGRGFSRGGGDRGYGGNRFESRSGGYGGSRDYYSSRSQSGGYSDRSSGGSYRDSYDSYATHNE", "values": [{"measurement": "IL-6Rα expression on microglia", "setting": "[1]; immunofluorescence", "value": "IL-6Rα expression on the microglial membrane significantly increased"}, {"measurement": "p-STAT3 level in microglia", "setting": "[1]; western blot, n = 6", "value": "increase in the p-STAT3/GAPDH ratio compared to the PBS control group"}, {"measurement": "Il6 mRNA expression", "setting": "[2]; qRT-PCR n = 3–6", "value": "did not show a significant change between groups"}, {"measurement": "Il6ra mRNA and protein expression", "setting": "[2]; qRT-PCR n = 3–6, western blot n = 9", "value": "significant upregulation of Il6ra mRNA and protein expression"}, {"measurement": "Kd", "setting": "[3]", "value": 4.27, "unit": "nM"}]}]}
